Paper PMC7904085

Molecular target: Protein A/G
Experiment: single-molecule TIRF microscopy, saturation curve

- Kd: 4.6 nM
Substance: Mouse monoclonal anti-V5 tag antibody [SV5-Pk1]
